Experimental data from PMC3983370.

Molecular target: HCoV-OC43 nucleocapsid (N) protein WT (Human coronavirus OC43, UniProt P33469 1-448)
Assay: SPR

HCoV-OC43 nucleocapsid (N) protein WT, sequence (P33469 whole entry): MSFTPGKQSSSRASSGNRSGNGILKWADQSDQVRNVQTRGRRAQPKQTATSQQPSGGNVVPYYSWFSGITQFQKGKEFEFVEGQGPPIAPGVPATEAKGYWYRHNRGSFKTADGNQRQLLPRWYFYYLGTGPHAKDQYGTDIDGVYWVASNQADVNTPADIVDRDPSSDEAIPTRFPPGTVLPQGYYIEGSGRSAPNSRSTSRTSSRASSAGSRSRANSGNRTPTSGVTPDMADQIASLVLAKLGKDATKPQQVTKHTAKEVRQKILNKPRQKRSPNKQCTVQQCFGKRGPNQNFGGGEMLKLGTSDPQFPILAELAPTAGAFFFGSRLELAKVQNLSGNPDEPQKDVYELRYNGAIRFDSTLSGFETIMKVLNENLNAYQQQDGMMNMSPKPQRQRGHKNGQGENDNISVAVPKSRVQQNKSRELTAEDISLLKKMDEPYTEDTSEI

## UCUAAACUCUAAACUCUAAACUCUAAAC (ssRNA) [(UCUAAAC)4 repeated intergenic sequence]
  Kd: 11.7 ± 0.8 nM
